Laboratory results published in US20230340071A1 (published 2023).

T1: human IL-2 receptor (IL-2Rβγc) on cells (human, UniProt P14784 27-551; P31785 23-369)
T1 sequence 1: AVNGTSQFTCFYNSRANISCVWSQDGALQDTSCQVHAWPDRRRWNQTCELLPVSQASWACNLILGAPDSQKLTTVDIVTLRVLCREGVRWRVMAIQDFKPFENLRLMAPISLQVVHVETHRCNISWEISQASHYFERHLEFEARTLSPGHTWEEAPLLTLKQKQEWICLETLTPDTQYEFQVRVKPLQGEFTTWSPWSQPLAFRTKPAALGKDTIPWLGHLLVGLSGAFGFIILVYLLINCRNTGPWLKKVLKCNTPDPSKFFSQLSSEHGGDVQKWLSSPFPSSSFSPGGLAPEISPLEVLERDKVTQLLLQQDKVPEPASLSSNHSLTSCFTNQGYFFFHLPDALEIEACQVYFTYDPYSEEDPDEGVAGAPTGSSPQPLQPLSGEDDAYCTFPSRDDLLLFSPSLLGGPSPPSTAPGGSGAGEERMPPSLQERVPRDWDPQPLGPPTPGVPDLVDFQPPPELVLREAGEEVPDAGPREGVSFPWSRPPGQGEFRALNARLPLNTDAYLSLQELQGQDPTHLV
T1 sequence 2: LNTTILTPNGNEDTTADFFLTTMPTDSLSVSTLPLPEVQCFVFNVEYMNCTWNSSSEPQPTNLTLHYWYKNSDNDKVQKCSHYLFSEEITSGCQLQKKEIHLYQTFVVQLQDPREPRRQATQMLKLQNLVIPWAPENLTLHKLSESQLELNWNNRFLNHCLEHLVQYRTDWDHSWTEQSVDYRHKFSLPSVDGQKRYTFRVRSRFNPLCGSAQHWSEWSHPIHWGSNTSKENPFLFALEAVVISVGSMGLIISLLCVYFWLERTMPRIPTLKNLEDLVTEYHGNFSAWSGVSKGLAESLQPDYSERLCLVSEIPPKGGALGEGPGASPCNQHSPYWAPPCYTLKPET

T2: Biotinylated hIL2RG (human, UniProt P31785 23-262, limits assumed, biotinylated (site not stated))
T2 construct: also called human common gamma receptor (hIL2RG); hIL-2Rγc
T2 sequence: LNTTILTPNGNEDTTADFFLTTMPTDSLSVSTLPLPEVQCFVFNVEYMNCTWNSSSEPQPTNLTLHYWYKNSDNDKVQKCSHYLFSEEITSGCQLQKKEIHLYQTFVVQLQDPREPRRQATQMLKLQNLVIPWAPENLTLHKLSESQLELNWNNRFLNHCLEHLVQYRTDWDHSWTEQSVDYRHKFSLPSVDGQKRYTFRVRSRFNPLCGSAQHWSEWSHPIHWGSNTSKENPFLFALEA

T3: hIL-2RBG (biotinylated hIL2RG on the sensor with hIL2RB in solution) (UniProt P14784 27-240; P31785 23-262, biotinylated (site not stated))
T3 chain 1: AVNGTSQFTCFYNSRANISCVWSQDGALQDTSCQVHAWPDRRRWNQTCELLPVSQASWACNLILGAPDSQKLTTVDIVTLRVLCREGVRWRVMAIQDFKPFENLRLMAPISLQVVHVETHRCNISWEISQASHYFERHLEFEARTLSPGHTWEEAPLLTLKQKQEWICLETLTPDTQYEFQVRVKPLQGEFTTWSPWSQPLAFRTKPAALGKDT
T3 chain 2: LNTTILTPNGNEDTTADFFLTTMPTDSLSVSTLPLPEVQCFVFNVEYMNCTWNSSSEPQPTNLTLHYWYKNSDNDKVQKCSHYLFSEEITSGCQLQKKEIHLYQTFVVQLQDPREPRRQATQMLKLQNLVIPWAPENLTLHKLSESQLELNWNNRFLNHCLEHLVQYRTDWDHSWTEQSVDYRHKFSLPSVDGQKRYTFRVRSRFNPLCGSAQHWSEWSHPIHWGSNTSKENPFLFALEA

T4: Biotinylated hIL2RB (UniProt P14784 27-240, biotinylated (site not stated))
T4 chain: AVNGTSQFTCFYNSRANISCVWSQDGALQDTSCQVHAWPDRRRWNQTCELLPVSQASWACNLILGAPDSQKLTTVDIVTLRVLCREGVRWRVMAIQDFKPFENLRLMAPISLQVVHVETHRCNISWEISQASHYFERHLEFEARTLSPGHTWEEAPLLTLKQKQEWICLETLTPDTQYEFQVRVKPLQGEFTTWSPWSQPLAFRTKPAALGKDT

T5: hIL2RG-fc chimera (human, UniProt P31785 23-262)
T5 construct: also called hIL2G; hIL2 receptor gamma; not shown: Fc part of the bought chimera (captured on anti-human IgG Fc biosensors)
T5 sequence: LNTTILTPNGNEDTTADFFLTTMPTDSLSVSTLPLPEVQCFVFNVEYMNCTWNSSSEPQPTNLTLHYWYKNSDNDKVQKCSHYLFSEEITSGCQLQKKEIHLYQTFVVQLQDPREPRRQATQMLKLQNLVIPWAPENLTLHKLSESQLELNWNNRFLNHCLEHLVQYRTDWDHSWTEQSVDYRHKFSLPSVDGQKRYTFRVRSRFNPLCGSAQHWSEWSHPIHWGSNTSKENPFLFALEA

T6: hIL2RB-fc chimera (human, UniProt P14784 27-240)
T6 construct: also called hIL2 receptor beta; hIL-2Rβ; not shown: Fc part of the bought chimera (captured on anti-human IgG Fc biosensors)
T6 sequence: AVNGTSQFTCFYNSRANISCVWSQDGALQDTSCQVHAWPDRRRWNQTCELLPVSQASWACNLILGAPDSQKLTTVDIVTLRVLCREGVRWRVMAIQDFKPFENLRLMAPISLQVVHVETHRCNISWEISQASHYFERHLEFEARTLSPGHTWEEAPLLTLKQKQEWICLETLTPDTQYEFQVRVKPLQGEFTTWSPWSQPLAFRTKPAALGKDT

T7: mouse IL-2 beta receptor (mouse, UniProt P16297 27-240)
T7 construct: also called mIL2RB; beta part of mIL2RBG
T7 sequence (looked up): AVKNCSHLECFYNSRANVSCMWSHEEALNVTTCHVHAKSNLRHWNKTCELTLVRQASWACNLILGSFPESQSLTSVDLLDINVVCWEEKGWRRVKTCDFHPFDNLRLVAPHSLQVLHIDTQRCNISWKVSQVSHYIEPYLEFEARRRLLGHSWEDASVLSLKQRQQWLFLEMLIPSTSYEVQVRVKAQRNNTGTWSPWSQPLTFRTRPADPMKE


How the values were obtained:
[1] = target: T1, human IL-2 receptor (IL-2Rβγc) on cells; assay: cell-based or functional assay
Biotinylated hIL2RG = target: T2, Biotinylated hIL2RG; assay: BLI (Octet RED96), biotinylated hIL2RG on streptavidin sensors, 200 nM protein + 200 nM hIL2RB
Method: Biotinylated hIL2RG molecules were immobilized to Streptavidin sensors (SA, ForteBio) at 2 μg/mL in binding buffer (10 mM HEPES, pH 7.4, 150 mM NaCl, 3 mM EDTA, 0.05% surfactant P20, 0.5% non-fat dry milk). After baseline measurement in the binding buffer alone, the binding kinetics were monitored by dipping the biosensors in wells containing 200 nM of protein and 200 nM of hIL2RB for 300 sec. Data were collected in an Octet RED96 (ForteBio) and processed using the instrument's integrated software.

[2] = target: T3, hIL-2RBG (biotinylated hIL2RG on the …); assay: BLI competition, inhibition of hIL-2 binding
Biotinylated hIL2RB = target: T4, Biotinylated hIL2RB; assay: BLI
[3] = target: T1, human IL-2 receptor (IL-2Rβγc) on cells; assay: cell-based or functional assay; remark: listed apart in the source
hIL2RG-fc chimera [4] = target: T5, hIL2RG-fc chimera; assay: BLI (Octet RED96e), hIL2RG-fc (AcroBiosystems) on anti-human IgG Fc sensors
Method: (§1) For this purpose, sensors were soaked in samples containing 20 nM of hIL2RG-fc chimera (AcroBiosystems) for 300 sec. […] Finally, sensors were removed from the protein samples and dipped in buffer solutions to promote and measure dissociation (1500 sec). The buffer used to prepare all the samples and soak the sensors was HBS-EP+ from GE Healthcare, which contains 10 mM HEPES, 150 mM NaCl, 3 mM EDTA and 0.05% v/v surfactant P20, pH 7.4. Data were acquired at 30° C. using an Octet RED96e system (ForteBio) and processed using the instrument's integrated software. Kinetics were fitted to a 1:1 binding model after subtracting a buffer signal baseline and the Kd values were calculated.

hIL2RB-fc chimera [5] = target: T6, hIL2RB-fc chimera; assay: BLI (Octet RED96e), hIL2RB-fc (AcroBiosystems) on anti-human IgG Fc sensors
Method: as §1, with “hIL2RB-fc” for “hIL2RG-fc”, “HBS-EP+from” for “HBS-EP+ from”

hIL2RG-fc chimera [6] = target: T5, hIL2RG-fc chimera; assay: BLI (Octet RED96e), hIL2RG-fc on anti-human IgG Fc sensors
Method: as §1

hIL2RG-fc chimera [7] = target: T5, hIL2RG-fc chimera; assay: BLI (Octet RED96e), hIL2RG-fc (Symansis) on anti-human IgG Fc sensors, protein + 200 nM hIL2RB-fc
Method: (§2) All samples were prepared using HBS-EP+ buffer from GE Healthcare, which contains 10 mM HEPES, 150 mM NaCl, 3 mM EDTA and 0.05% v/v surfactant P20, pH 7.4. Data were acquired at 30° C. using an Octet RED96e system (ForteBio) and processed using the instrument's integrated software.

[8] = target: T1, human IL-2 receptor (IL-2Rβγc) on cells; assay: cell-based or functional assay; remark: listed apart in the source
hIL2RB-fc chimera [9] = target: T6, hIL2RB-fc chimera; assay: BLI competition: hIL2RG-fc on sensor, dilutions of P3 + 20 nM Neo-2/15 + 50 nM hIL2RB-fc; competitor Neo-2/15; read-out binding to hIL2RBG
Method: as §2, with “HBS-EP+buffer” for “HBS-EP+ buffer”, “software. IC50 values were estimated from response vs antagonist concentration plots.” for “software.”

hIL2RB-fc chimera [10] = target: T6, hIL2RB-fc chimera; assay: BLI (Octet RED96e), hIL2RB-fc (Symansis) on anti-human IgG Fc sensors
Method: as §1, with “hIL2RB-fc” for “hIL2RG-fc”, “(Symansis)” for “(AcroBiosystems)”, “HBS-EP+from” for “HBS-EP+ from”

hIL2RG-fc chimera [11] = target: T5, hIL2RG-fc chimera; assay: BLI (Octet RED96e), hIL2RG-fc on anti-human IgG Fc sensors, 200 nM P3 + 200 nM hIL2RB-fc
Method: as §2

mouse IL-2 beta receptor = target: T7, mouse IL-2 beta receptor; assay: BLI competition: mIL2RG on sensor, dilutions of P3 + 20 nM Neo-2/15; competitor Neo-2/15; read-out binding to mIL2RBG
Method: as §2, with “HBS-EP+buffer” for “HBS-EP+ buffer”, “software. IC50 values were estimated from response vs antagonist concentration plots.” for “software.”

Row | Binder | Signaling Inhibition IC50 (1 nM hIL-2, pSTAT5, CD8+ T cells) [1] | binding result (Biotinylated hIL2RG) | IC50 [2] | Kd (Biotinylated hIL2RB) | Induced Signaling EC50 (pSTAT5, YT-1 CTLL-2 cells) [3] | Kd (hIL2RG-fc chimera [4]) | Kd (hIL2RB-fc chimera [5]) | other results
1 | Protein 6 (P6) (designed binder, P5 with 'Y8F' (printed; P5 has H at 8) and K33E; N-terminal 6xHis tag and thrombin site in the expression vector) PKKKIQLFAEHALYDAEMILKIVKTNSPPAEEELEDYAFNFELILEEIARLFESGDQKDEAEKAKRMKEWMKRIKTTASEDEQEEMANKIRKILEEWIRS | 0.41 nM | no binding (tested: 200 nM) | 83 nM | < 1 nM |  |  |  | Signaling Inhibition IC50 (1 nM hIL-2, pSTAT5, CD4+ T cells) [1]: 1.84 nM; Signaling Inhibition IC50 (1 nM hIL-2, pSTAT5, all T cells) [1]: 0.83 nM
2 | Protein 1 (P1) (designed binder, N-terminal 6xHis tag and thrombin site in the expression vector) PKKKIQLHAEHARYDAEMILNIVKTNSPPAEEKLEDYAFNFELILEEIARLFESGDQKDEAEKAKRMKEWMKRIKTTASEDEQEEMANAIITILTSWIRS |  |  |  |  | 557 nM | 1190 nM | 17 nM | 
3 | Neo-2/15 (designed binder, Proteins were expressed in E. coli with an N-terminal 6xHis tag and thrombin site; also called Neoleukin-2/15) PKKKIQLHAEHALYDALMILNIVKTNSPPAEEKLEDYAFNFELILEEIARLFESGDQKDEAEKAKRMKEWMKRIKTTASEDEQEEMANAIITILQSWIFS |  |  |  |  |  | 277 nM |  | Kd (hIL2RG-fc chimera [7]): 277 nM
4 | Protein 3 (P3) (designed binder, P1 with H8Y and K33E; N-terminal 6xHis tag and thrombin site in the expression vector) PKKKIQLYAEHARYDAEMILNIVKTNSPPAEEELEDYAFNFELILEEIARLFESGDQKDEAEKAKRMKEWMKRIKTTASEDEQEEMANAIITILTSWIRS |  |  |  |  |  |  |  | Binding Inhibition IC50 (inhibition of hIL-2 pSTAT5 signaling, human pan T cells, 0.1 nM hIL2) [8]: 1.4 nM; Binding Inhibition IC50 (inhibition of hIL-2 pSTAT5 signaling, human pan T cells, 1 nM hIL2) [8]: 11.7 nM; Binding Inhibition IC50 (inhibition of hIL-2 pSTAT5 signaling, human pan T cells, 10 nM hIL2) [8]: 863 nM; IC50 (hIL2RB-fc chimera [9]): 12.5 nM; Kd (hIL2RB-fc chimera [10]): 0.2 nM; binding result (hIL2RG-fc chimera [11]): no binding (tested: 200 nM); IC50 (mouse IL-2 beta receptor): > 200 nM

Further lines, with some results ahead:

Row | Signaling Inhibition IC50 (1 nM hIL-2, pSTAT5, CD8+ T cells) [1] | binding result (Biotinylated hIL2RG) | IC50 [2] | Kd (Biotinylated hIL2RB) | Induced Signaling EC50 (pSTAT5, YT-1 CTLL-2 cells) [3] | Kd (hIL2RG-fc chimera [4]) | Kd (hIL2RB-fc chimera [5]) | Binder | other results
5 |  |  |  |  | 426 nM |  | 21 nM | Protein 2 (P2) (designed binder, N-terminal 6xHis tag and thrombin site in the expression vector) PKKKIQLHAEHALYDAEMILKIVKTNSPPAEEKLEDYAFNFELILEEIARLFESGDQKDEAEKAKRMKEWMKRIKTTASEDEQEEMANRIRKILEEWIRS | binding result (hIL2RG-fc chimera [6]): no binding (tested: 5000 nM (highest concentration tested))
6 | 77.7 nM | no binding (tested: 200 nM) | 100 nM | 12 nM |  |  |  | Protein 5 (P5) (designed binder, N-terminal 6xHis tag and thrombin site in the expression vector) PKKKIQLHAEHALYDAEMILKIVKTNSPPAEEKLEDYAFNFELILEEIARLFESGDQKDEAEKAKRMKEWMKRIKTTASEDEQEEMANKIRKILEEWIRS | 
